One block for each binder: values may come before it. Starred links: 1 amine or outer side, 2 acyl side, 3 side chain; linkers in the order of their positions; H or OH if unused. Positions of bridges follow the written chain, without caps; N, C: chain ends. Non-standard residues stand in square brackets, D forms with d. Primed or numbered codes have the meaning given here. No end group written: not given here. TBMB′ = 1,3,5-tris(bromomethyl)benzene, 1,3,5-tris(methylene)benzene core, three thioethers to Cys; TATA = O=C(CC[*:1])N1CN(C(=O)CC[*:2])CN(C(=O)CC[*:3])C1; Fl″ = fluorescein label (5(6)-carboxyfluorescein; 1Nal = N[C@@H](Cc1cccc2ccccc12)C(=O)O; TBMB = c1c(C[*:1])cc(C[*:3])cc1C[*:2]; hArg = N=C(N)NCCCC[C@H](N)C(=O)O; Tle = CC(C)(C)[C@H](N)C(=O)O; Dap = NC[C@H](N)C(=O)O; AF488 = AlexaFluor488; Aib = CC(C)(N)C(=O)O; βAla = NCCC(=O)O; Sar = CNCC(=O)O
What was measured:
[1] = biological target: Human EphA2 (Ecto) (Human) (UniProt P29317); test: FP direct binding
[2] = biological target: Human EphA2 (Ecto) (Human) (UniProt P29317); test: FP competition; tracer Reference Compound C
[3] = biological target: Mouse EphA2 (Ecto) (Mouse) (UniProt Q03145); test: FP competition; tracer Reference Compound C
Mouse EphA2 (Ecto) [4] = biological target: T1, Mouse EphA2 (Ecto) (Mouse, UniProt Q03145 26-538); test: fluorescence polarisation, direct binding
T1 construct: extracellular domain; not shown: Fc fusion or C-terminal polyHis

[5] = biological target: Human EphA2 (Ecto) (Human) (UniProt P29317); test: FP competition, tracer Compound 18
[6] = biological target: Mouse EphA2 (Ecto) (Mouse) (UniProt Q03145); test: FP competition, tracer Compound 18
Mouse EphA2 (Ecto) [7] = biological target: T2, Mouse EphA2 (Ecto) (Mouse, UniProt Q03145 26-538); test: FP competition, tracer Compound 18
T2 construct: extracellular domain
In short: (§1)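 Unlabelled peptides competed against a fluorescently tagged peptide of known Kd. Peptides were diluted in direct-binding assay buffer (≤5% DMSO) and serially diluted 1 in 2. Read as in the direct binding assay, with gain set before the first read; mP values fit to a cubic equation to give Ki.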

Human EphA2 (Ecto) = biological target: T3, Human EphA2 (Ecto) (Human, UniProt P29317 24-537); test: FP competition, tracer Compound 18
T3 construct: extracellular domain
In short: as §1

[8] = biological target: EphA2 (species not stated in Examples 1-6 and Reference Examples 1-2) (Homo sapiens (Human)) (UniProt P29317); test: fluorescence polarisation competition; fluorescent peptide not named
[9] = biological target: EphA2 (species not stated in Examples 1-6 and Reference Examples 1-2) (Homo sapiens (Human), UniProt P29317 24-537); test: as above
[10] = biological target: T4, Human EphA2 (Ecto), C-terminal polyHis (Human, UniProt P29317 24-537); test: fluorescence polarisation competition; competitor fluorescent Compound 1
T4 construct: extracellular domain; also called EPH receptor A2; ephrin type-A receptor 2
Procedure: (§2) Peptides without a fluorescent tag were tested in competition with a peptide with a fluorescent tag and a known Kd (Table 2). Peptides were diluted to an appropriate concentration in assay buffer as described in the direct binding assay with a maximum of 5% DMSO, then serially diluted 1 in 2. […] Measurements were conducted as for the direct binding assay, however the gain was determined prior to the first measurement. Data analysis was in Systat Sigmaplot version 12.0 where the mP values were fit to a user defined cubic equation to generate a Ki value: […]

[11] = biological target: T4, Human EphA2 (Ecto), C-terminal polyHis; test: fluorescence polarisation competition; competitor fluorescent Compound 12
Procedure: as §2

[12] = biological target: T4, Human EphA2 (Ecto), C-terminal polyHis; test: fluorescence polarisation competition; competitor fluorescent Compound 66
In short: as §1

Mouse EphA2 (Ecto) (Mouse), sequence (Q03145 26-538): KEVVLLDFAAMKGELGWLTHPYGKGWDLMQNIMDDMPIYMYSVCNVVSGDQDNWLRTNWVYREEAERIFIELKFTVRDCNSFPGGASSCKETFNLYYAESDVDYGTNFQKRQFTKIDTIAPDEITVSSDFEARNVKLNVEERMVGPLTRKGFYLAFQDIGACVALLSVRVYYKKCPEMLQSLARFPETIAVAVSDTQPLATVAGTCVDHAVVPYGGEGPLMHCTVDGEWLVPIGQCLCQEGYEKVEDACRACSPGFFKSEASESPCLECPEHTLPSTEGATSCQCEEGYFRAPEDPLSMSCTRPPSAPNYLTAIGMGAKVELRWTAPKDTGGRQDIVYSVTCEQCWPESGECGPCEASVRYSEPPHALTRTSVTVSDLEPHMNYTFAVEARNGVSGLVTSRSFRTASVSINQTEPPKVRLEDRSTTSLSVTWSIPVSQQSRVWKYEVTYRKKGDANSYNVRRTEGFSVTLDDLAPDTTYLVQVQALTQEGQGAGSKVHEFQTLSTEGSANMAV
Human EphA2 (Ecto) (Human), sequence (P29317 24-537): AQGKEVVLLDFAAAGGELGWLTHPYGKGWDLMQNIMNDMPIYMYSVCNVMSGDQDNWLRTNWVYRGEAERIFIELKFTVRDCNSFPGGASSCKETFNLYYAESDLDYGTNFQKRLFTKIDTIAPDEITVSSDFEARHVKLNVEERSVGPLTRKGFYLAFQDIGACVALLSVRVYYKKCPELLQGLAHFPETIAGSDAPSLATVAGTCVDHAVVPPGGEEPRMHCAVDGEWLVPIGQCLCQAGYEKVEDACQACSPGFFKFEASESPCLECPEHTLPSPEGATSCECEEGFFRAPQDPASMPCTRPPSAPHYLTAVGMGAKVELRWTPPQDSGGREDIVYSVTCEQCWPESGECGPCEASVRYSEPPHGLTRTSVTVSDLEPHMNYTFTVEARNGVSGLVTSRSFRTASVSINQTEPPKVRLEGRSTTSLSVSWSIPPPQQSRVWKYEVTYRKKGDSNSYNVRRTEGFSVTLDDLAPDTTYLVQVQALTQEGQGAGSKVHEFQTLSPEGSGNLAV
T4 sequence (P29317 24-537): as above
T3 sequence (P29317 24-537): as above
EphA2 (species not stated in Examples 1-6 and Reference Examples 1-2) (Homo sapiens (Human)), sequence (P29317 24-537 limits assumed, form in doubt): as the sequence (P29317 24-537) above
EphA2 (species not stated in Examples 1-6 and Reference Examples 1-2), sequence (P29317 24-537 limits assumed, form in doubt): as the sequence (P29317 24-537) above

Kd [1]: 9.07 nM
Binder: {Fl″}-[βAla][Sar][Sar][Sar][Sar][Sar][Sar][Sar][Sar][Sar][Sar]A[hArg]DCPLVNPLCLHPGWTC (linker 15-22-29 via TATA) [Bicycle Compound 10 (TATA, Table 11)]

Ki [2]: 5.41 nM
Ki [3]: 47 nM
Binder: [βAla][Sar][Sar][Sar][Sar][Sar][Sar][Sar][Sar][Sar][Sar]ACPLVNPLCLHPGWSC[hArg]GQ (linker 13-20-27 via TATA) [Bicycle Compound Number 90 (TATA scaffold), (β-Ala)-Sar10-…(HArg)GQ]

Kd (Mouse EphA2 (Ecto) [4]): 0.8 nM
Binder: AF488-[βAla][Sar][Sar][Sar][Sar][Sar][Sar][Sar][Sar][Sar][Sar]H[dD]VPCPWGPFWCPVNRPGCA (linker 16-23-30 via TBMB) [Bicycle Compound Number 139 (TBMB scaffold)]

Ki [5]: 0.71 nM
Ki [6]: 0.72 nM
Binder: Ac-[Sar][Sar]H[dD]VPCP[1Nal]G[Aib]F[1Nal]CP[Tle]NR[Aib]GC (linker 7-14-21 via TBMB) [Bicycle Compound 262]

Ki (Mouse EphA2 (Ecto) [7]): 2.2 nM
Ki (Human EphA2 (Ecto)): 2.05 nM
Binder: Ac-[Sar][Sar]A[dD]VTCPWGPFWCPVNRPGC (linker 7-14-21 via TBMB′) [Bicycle Compound 158]

Ki (Mouse EphA2 (Ecto) [7]): 2.08 nM
Ki (Human EphA2 (Ecto)): 1 nM
Binder: Ac-[Sar][Sar]H[dD]VPCPWGPFWCPVNRPGC (linker 7-14-21 via TBMB) [Bicycle Compound 225]

Ki [8]: 136 nM
Binder: Ac-[βAla][Sar][Sar][Sar][Sar][Sar][Sar][Sar][Sar][Sar][Sar]H[dD]VP[Dap]PWGPFW[Dap]PVNRPGC (linker 16-23-30 via TBMB) [55-03-05-N314]

Ki [2]: 8.51 nM
Ki [3]: 61.7 nM
Binder: [βAla][Sar][Sar][Sar][Sar][Sar][Sar][Sar][Sar][Sar][Sar]A[hArg]DCPLVNPLCLHPGWTC (linker 15-22-29 via TATA) [Bicycle Compound Number 67 (BCY6014) (TATA scaffold), (β-Ala)-Sar10-A(HArg)…]

Ki [9]: 4.12 nM
B1: 55-03-05-N233 (peptide)
peptide: [βAla][Sar][Sar][Sar][Sar][Sar][Sar][Sar][Sar][Sar][Sar]H[dD]VPCPWGPFWCPVNRPGC
modifications: linker 16-23-30 via TBMB
notes: bicyclic peptide on trimethylene benzene scaffold

Ki [10]: 144 nM
Ki [11]: 92.2 nM
Ki [12]: 82.5 nM
Binder: ACVPQGIWCALQFEPCA (linker 2-9-16 via TBMB (inferred), also called Compound 63) [Bicycle Compound Number 63 (TBMB scaffold)]

Ki [10]: 83.4 nM
Binder: ACRNIPTMCPFGPVWCA (linker 2-9-16 via TBMB, also called Compound 32) [Bicycle Compound Number 32 (TBMB scaffold)]
